# Measured values from patent US20130195871A1 (AbbVie / Abbott, published 2013).
# B1: DVD2283 (bispecific antibody)
# VH: QVQLQQWGAGLLKPSETLSLTCAVYGGSFSGYYWSWIRQPPGKGLEWIGEINHSGSTNYNPSLKSRVTISVETSKNQFSLKLSSVTAADTAVYYCARDKWTWYFDLWGRGTLVTVSSASTKGPEVQLVQSGAEVKKPGSSVKVSCKASGGTFSSYAISWVRQAPGQGLEWMGGIIPIFGTANYAQKFQGRVTITADKSTSTAYMELSSLRSEDTAVYYCARAPLRFLEWSTQDHYYYYYMDVWGKGTTVTVSS
# VL: DIEMTQSPDSLAVSLGERATINCRSSQSVLYSSSNRNYLAWYQQNPGQPPKLLIYWASTRESGVPDRFSGSGSGTDFTLTISSLQAEDVAVYYCQQYYSTPRTFGQGTKVEIKRTVAAPSSELTQDPAVSVALGQTVRITCQGDSLRSYYATWYQQKPGQAPILVIYGENKRPSGIPDRFSGSSSGNTASLTITGAQAEDEADYYCKSRDGSGQHLVFGGGTKLTVL
# notes: DVD-Ig, outer AB062 / inner AB075
# B2: DVD2340 (bispecific antibody)
# VH: QVQLQESGPGLVKPSEILSLTCTVSGGSISSHYWSWVRQPPGKGLEWIGYIYYSGSTNYNPSLKSRVTISVDTSKNQFSLNLSSVTAADTAVYYCARIPNYYDRSGYYPGYWYFDLWGRGTLVTVSSASTKGPEVQLLESGGGLVQPGGSLRLSCTASGFTFSSYAMNWVRQAPGKGLEWVSAISGSGGTTFYADSVKGRFTISRDNSRTTLYLQMNSLRAEDTAVYYCAKDLGWSDSYYYYYGMDVWGQGTTVTVSS
# VL: QAVLTQPSSLSAPPGASASLTCTLRSGFNVDSYRISWYQQKPGSPPQYLLRYKSDSDKQQGSGVPSRFSGSKDASANAGILLISGLQSEDEADYYCMIWHSSAWVFGGGTKLTVLRQPKAAPDIQMTQFPSSLSASVGDRVTITCRASQGIRNDLGWYQQKPGKAPKRLIYAASRLHRGVPSRFSGSGSGTEFTLTISSLQPEDFATYYCLQHNSYPCSFGQGTKLEIK
# notes: DVD-Ig, outer AB034 / inner AB011
# B3: DVD2290 (bispecific antibody)
# VH: EVQLVESGGGLVQPGGSLRLSCAASGFSLTNYGVHWVRQAPGKGLEWLGVGWSGGNTDYNTPFTSRLTINKDNSKNTVYLQMNSLRAEDTAVYYCARALTWYDYEFAYWGQGTLVTVSSASTKGPQVQLQESGPGLVKPSETLSLTCTVSGGSVSSGDYYWTWIRQSPGKGLEWIGHIYYSGNTNYNPSLKSRLTISIDTSKTQFSLKLSSVTAADTAIYYCVRDRVTGAFDIWGQGTMVTVSS
# VL: DILLTQSPGTLSLSPGERATLSCRASQSIYTNIHWYQQKPGQAPRLLIKYASESISGIPDRFSGSGSGTDFTLTISRLEPEDFAVYYCQQNLNWPTTFGQGTKLEIKRTVAAPDIQMTQSPSSLSASVGDRVTITCQASQDISNYLNWYQQKPGKAPKLLIYDASNLETGVPSRFSGSGSGTDFTFTISSLQPEDIATYFCQHFDHLPLAFGGGTKVEIK
# B4: DVD2291 (bispecific antibody)
# VH: QVQLQESGPGLVKPSETLSLTCTVSGGSVSSGDYYWTWIRQSPGKGLEWIGHIYYSGNTNYNPSLKSRLTISIDTSKTQFSLKLSSVTAADTAIYYCVRDRVTGAFDIWGQGTMVTVSSASTKGPEVQLVESGGGLVQPGGSLRLSCAASGFSLTNYGVHWVRQAPGKGLEWLGVGWSGGNTDYNTPFTSRLTINKDNSKNTVYLQMNSLRAEDTAVYYCARALTWYDYEFAYWGQGTLVTVSS
# VL: DIQMTQSPSSLSASVGDRVTITCQASQDISNYLNWYQQKPGKAPKLLIYDASNLETGVPSRFSGSGSGTDFTFTISSLQPEDIATYFCQHFDHLPLAFGGGTKVEIKRTVAAPDILLTQSPGTLSLSPGERATLSCRASQSIYTNIHWYQQKPGQAPRLLIKYASESISGIPDRFSGSGSGTDFTLTISRLEPEDFAVYYCQQNLNWPTTFGQGTKLEIK
# B5: DVD2324 (bispecific antibody)
# VH: EVQLVQSGGGLVKPGGSLRLSCAASGFTFSSYAMHWVRQAPGKGLEWVAVISYDGSNKYYADSVKGRFTISRDNSKNTLYLQMNSLRAEDTAVYYCARFSGWPNNYYYYGMDVWGQGTTVTVSSASTKGPEVQLVQSGGGLVKPGGSLRLSCAASGFTFSSFAMHWVRQAPGKGLEWISVIDTRGATYYADSVKGRFTISRDNAKNSLYLQMNSLRAEDTAVYYCARLGNFYYGMDVWGQGTTVTVSS
# VL: DVVMTQSPLSLPVTPGEPASISCRSSQSLLHSNGFNYVDWYLQKPGQSPHLLIYFGSYRASGVPDRFSGSGSGTDFTLKISRVEAEDVGVYYCMQALQTPPWTFGQGTKVEIRRTVAAPEIVLTQSPGTLSVSPGERATLSCRASQSIGSSLHWYQQKPGQAPRLLIKYASQSLSGIPDRFSGSGSGTDFTLTISRLEPEDFAVYYCHQSSRLPHTFGQGTKVEIK
# notes: DVD-Ig, outer AB005 / inner AB077
# B6: DVD2336 (bispecific antibody)
# VH: QVQLQESGPGLVKPSEILSLTCTVSGGSISSHYWSWVRQPPGKGLEWIGYIYYSGSTNYNPSLKSRVTISVDTSKNQFSLNLSSVTAADTAVYYCARIPNYYDRSGYYPGYWYFDLWGRGTLVTVSSASTKGPEVQLVQSGGGLVKPGGSLRLSCAASGFTFSSFAMHWVRQAPGKGLEWISVIDTRGATYYADSVKGRFTISRDNAKNSLYLQMNSLRAEDTAVYYCARLGNFYYGMDVWGQGTTVTVSS
# VL: QAVLTQPSSLSAPPGASASLTCTLRSGFNVDSYRISWYQQKPGSPPQYLLRYKSDSDKQQGSGVPSRFSGSKDASANAGILLISGLQSEDEADYYCMIWHSSAWVFGGGTKLTVLRQPKAAPEIVLTQSPGTLSVSPGERATLSCRASQSIGSSLHWYQQKPGQAPRLLIKYASQSLSGIPDRFSGSGSGTDFTLTISRLEPEDFAVYYCHQSSRLPHTFGQGTKVEIK
# notes: DVD-Ig, outer AB034 / inner AB077
# B7: DVD2326 (bispecific antibody)
# VH: EVQLVQSGGGLVKPGGSLRLSCAASGFTFSSYAMHWVRQAPGKGLEWVAVISYDGSNKYYADSVKGRFTISRDNSKNTLYLQMNSLRAEDTAVYYCARFSGWPNNYYYYGMDVWGQGTTVTVSSASTKGPEVQLLESGGGLVQPGGSLRLSCTASGFTFSSYAMNWVRQAPGKGLEWVSAISGSGGTTFYADSVKGRFTISRDNSRTTLYLQMNSLRAEDTAVYYCAKDLGWSDSYYYYYGMDVWGQGTTVTVSS
# VL: DVVMTQSPLSLPVTPGEPASISCRSSQSLLHSNGFNYVDWYLQKPGQSPHLLIYFGSYRASGVPDRFSGSGSGTDFTLKISRVEAEDVGVYYCMQALQTPPWTFGQGTKVEIRRTVAAPDIQMTQFPSSLSASVGDRVTITCRASQGIRNDLGWYQQKPGKAPKRLIYAASRLHRGVPSRFSGSGSGTEFTLTISSLQPEDFATYYCLQHNSYPCSFGQGTKLEIK
# notes: DVD-Ig, outer AB005 / inner AB011
# B8: DVD2279 (bispecific antibody)
# VH: EVQLVESGGGLVQPGGSLRLSCAASGFTFSIYSMNWVRQAPGKGLEWVSYISSSSSTIYYADSVKGRFTISRDNAKNSLYLQMNSLRDEDTAVYYCARDRGDFDAFDIWGQGTMVTVSSASTKGPEVQLVQSGAEVKKPGSSVKVSCKASGGTFSSYAISWVRQAPGQGLEWMGGIIPIFGTANYAQKFQGRVTITADKSTSTAYMELSSLRSEDTAVYYCARAPLRFLEWSTQDHYYYYYMDVWGKGTTVTVSS
# VL: DIQMTQSPSSLSASVGDRVTITCQASQDITNYLNWYQQKPGKAPKLLIYDASNLETGVPSRFSGSGSGTDFTFTISSLQPEDIATYNCQQCENFPITFGQGTRLEIKRTVAAPSSELTQDPAVSVALGQTVRITCQGDSLRSYYATWYQQKPGQAPILVIYGENKRPSGIPDRFSGSSSGNTASLTITGAQAEDEADYYCKSRDGSGQHLVFGGGTKLTVL
# notes: DVD-Ig, outer AB063 / inner AB075
# B9: DVD2347 (bispecific antibody)
# VH: EVQLVQSGGGLVKPGGSLRLSCAASGFTFSSFAMHWVRQAPGKGLEWISVIDTRGATYYADSVKGRFTISRDNAKNSLYLQMNSLRAEDTAVYYCARLGNFYYGMDVWGQGTTVTVSSASTKGPQVQLQESGPGLVKPSQTLSLTCTVSGYSISSDFAWNWIRQPPGKGLEWMGYISYSGNTRYQPSLKSRITISRDTSKNQFFLKLNSVTAADTATYYCVTAGRGFPYWGQGTLVTVSS
# VL: EIVLTQSPGTLSVSPGERATLSCRASQSIGSSLHWYQQKPGQAPRLLIKYASQSLSGIPDRFSGSGSGTDFTLTISRLEPEDFAVYYCHQSSRLPHTFGQGTKVEIKRTVAAPDIQMTQSPSSMSVSVGDRVTITCHSSQDINSNIGWLQQKPGKSFKGLIYHGTNLDDGVPSRFSGSGSGTDYTLTISSLQPEDFATYYCVQYAQFPWTFGGGTKLEIK
# B10: DVD2214 (bispecific antibody)
# VH: EVQLVQSGAEVKKPGSSVKVSCKASGGTFSSYAISWVRQAPGQGLEWMGGIIPIFGTANYAQKFQGRVTITADKSTSTAYMELSSLRSEDTAVYYCARAPLRFLEWSTQDHYYYYYMDVWGKGTTVTVSSASTKGPEVQLLESGGGLVQPGGSLRLSCTASGFTFSSYAMNWVRQAPGKGLEWVSAISGSGGTTFYADSVKGRFTISRDNSRTTLYLQMNSLRAEDTAVYYCAKDLGWSDSYYYYYGMDVWGQGTTVTVSS
# VL: SSELTQDPAVSVALGQTVRITCQGDSLRSYYATWYQQKPGQAPILVIYGENKRPSGIPDRFSGSSSGNTASLTITGAQAEDEADYYCKSRDGSGQHLVFGGGTKLTVLGQPKAAPDIQMTQFPSSLSASVGDRVTITCRASQGIRNDLGWYQQKPGKAPKRLIYAASRLHRGVPSRFSGSGSGTEFTLTISSLQPEDFATYYCLQHNSYPCSFGQGTKLEIK
# notes: DVD-Ig, outer AB075 / inner AB011
# B11: DVD2216 (bispecific antibody)
# VH: B10 VH
# VL: SSELTQDPAVSVALGQTVRITCQGDSLRSYYATWYQQKPGQAPILVIYGENKRPSGIPDRFSGSSSGNTASLTITGAQAEDEADYYCKSRDGSGQHLVFGGGTKLTVLGQPKAAPSVTLFPPDIQMTQFPSSLSASVGDRVTITCRASQGIRNDLGWYQQKPGKAPKRLIYAASRLHRGVPSRFSGSGSGTEFTLTISSLQPEDFATYYCLQHNSYPCSFGQGTKLEIK
# notes: as for B10
# Key:
# Recombinant Human IGF1R [1] = molecular target: T1, Recombinant Human IGF1R (human, UniProt P08069 31-932); test: SPR (Biacore), C-terminal VD;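 note: surface plasmon resonance with DVD-Ig proteins captured on an anti-IgG chip and recombinant antigen flowed over in HBS-EP buffer, Langmuir global fit, KD taken as koff/kon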
# T1 construct: bought reagent
# Experimental: (§1) The BIACORE assay (Biacore, Inc, Piscataway, N.J.) determined the affinity of antibodies or DVD-Ig proteins with kinetic measurements of on-rate and off-rate constants. Binding of antibodies or DVD-Ig proteins to a target antigen (for example, a purified recombinant target antigen) was determined by surface plasmon resonance-based measurements with a Biacore® 1000 or 3000 instrument (Biacore AB, Uppsala. Sweden) using running HBS-EP (10 mM HEPES [pH 7.4], 150 mM NaCl, 3 mM EDTA, and 0.005% surfactant P20) at 25° C. […] For example, approximately 5000 RU of goat anti-mouse IgG, (Fcγ), fragment specific polyclonal antibody (Pierce Biotechnology Inc, Rockford, Ill.) diluted in 10 mM sodium acetate (pH 4.5) was directly immobilized across a CM5 research grade biosensor chip using a standard amine coupling kit according to manufacturer's instructions and procedures at 25 μg/ml. Unreacted moieties on the biosensor surface were blocked with ethanolamine. Modified carboxymethyl dextran surface in flowcell 2 and 4 was used as a reaction surface. Unmodified carboxymethyl dextran without goat anti-mouse IgG in flow cell 1 and 3 was used as the reference surface. For kinetic analysis, rate equations derived from the 1:1 Langmuir binding model were fitted simultaneously to association and dissociation phases of all eight injections (using global fit analysis) with the use of Biaevaluation 4.0.1 software. Purified antibodies or DVD-Ig proteins were diluted in HEPES-buffered saline for capture across goat anti-mouse IgG specific reaction surfaces. Antibodies or DVD-Ig proteins to be captured as a ligand (25 μg/ml) were injected over reaction matrices at a flow rate of 5 μl/minute. The association and dissociation rate constants, kₒₙ (M⁻¹s⁻¹) and koff (s⁻¹) were determined under a continuous flow rate of 25 μl/minute. Rate constants were derived by making kinetic binding measurements at different antigen concentrations ranging from 10-200 nM. The equilibrium dissociation constant (M) of the reaction between antibodies or DVD-Ig proteins and the target antigen was then calculated from the kinetic rate constants by the following formula: KD=koff/kₒₙ. Binding was recorded as a function of time and kinetic rate constants were calculated.
# [2] = molecular target: T2, Recombinant Human MSP Receptor ECD-His tag (human, UniProt Q04912 25-957); test: SPR (Biacore), N-terminal VD;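 note: capture of antibodies or DVD-Ig proteins on an anti-mouse IgG chip surface, recombinant antigen injected at 10–200 nM in HBS-EP running buffer at 25 °C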
# T2 construct: extracellular domain; bought reagent; also called RON
# EGFR on the cell surface [3] = molecular target: T3, EGFR on the cell surface (human, UniProt P00533 25-1210); test: flow cytometry on cells, 2 ug/mL, C-terminal VD;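 note: cells stained for 30 to 60 min on ice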
# T3 construct: whole, on cells
# Experimental: Stable cell lines overexpressing a cell-surface antigen of interest or human tumor cell lines were harvested from tissue culture flasks and resuspended in phosphate buffered saline (PBS) containing 5% fetal bovine serum (PBS/FBS). Prior to staining, human tumor cells were incubated on ice with (100 μl) human IgG at 5 μg/ml in PBS/FCS. 1-5×10⁵ cells were incubated with antibody or DVD-Ig (2 μg/mL) in PBS/FBS for 30-60 minutes on ice. […] After 30 minutes incubation on ice, cells were washed twice and resuspended in PBS/FBS. Fluorescence was measured using a Becton Dickinson FACSCalibur (Becton Dickinson, San Jose, Calif.).
# The geometric mean is the n root of the multiplication product of n fluorescent signals (a1×a2×a3 . . . an). With log-transformed data the geometric mean is used to normalize the weighting of the data distribution.
# EGFR on the cell surface [4] = molecular target: T3, EGFR on the cell surface; test: flow cytometry on cells, 2 ug/mL, N-terminal VD;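 note: cells stained for 30 to 60 min on ice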
# Recombinant Human IGF1R [5] = molecular target: T1, Recombinant Human IGF1R; test: SPR (Biacore)
# Experimental: as §1
binder,measurement,setting,value
B1,Kd,Recombinant Human IGF1R [1],5 nM
same,koff,Recombinant Human IGF1R [1],0.00012 s⁻¹
same,kon,Recombinant Human IGF1R [1],25000 M⁻¹ s⁻¹
B2,binding result,Recombinant Human IGF1R [1],no binding (tested: 10-200 nM)
same,Kd,[2],23 nM
B3,GEO MEAN,EGFR on the cell surface [3],448
same,GEO MEAN,EGFR on the cell surface [4],448
B4,GEO MEAN,EGFR on the cell surface [3],541
same,GEO MEAN,EGFR on the cell surface [4],541
B5,binding result,Recombinant Human IGF1R [1],no binding (tested: 10-200 nM)
same,Kd,[2],21 nM
same,koff,[2],0.00093 s⁻¹
same,kon,[2],44000 M⁻¹ s⁻¹
B6,binding result,Recombinant Human IGF1R [1],no binding (tested: 10-200 nM)
same,Kd,[2],40 nM
B7,binding result,Recombinant Human IGF1R [1],no binding (tested: 10-200 nM)
same,Kd,[2],21 nM
same,koff,[2],0.00091 s⁻¹
B8,Kd,Recombinant Human IGF1R [1],0.047 nM
same,koff,Recombinant Human IGF1R [1],2.3e-06 s⁻¹
same,kon,Recombinant Human IGF1R [1],49000 M⁻¹ s⁻¹
B9,GEO MEAN,EGFR on the cell surface [3],9.84
B10,Kd,Recombinant Human IGF1R [5],5.5 nM
same,koff,Recombinant Human IGF1R [5],0.00014 s⁻¹
same,kon,Recombinant Human IGF1R [5],26000 M⁻¹ s⁻¹
B11,Kd,Recombinant Human IGF1R [5],6.6 nM
same,koff,Recombinant Human IGF1R [5],0.00012 s⁻¹
same,kon,Recombinant Human IGF1R [5],19000 M⁻¹ s⁻¹
